Measured values reported in patent US20090143724A1, “Microprojection Array Immunization Patch and Method” (Alza Corporation, priority 2001, published 2009).

Key:
[1] = OVA delivery into hairless guinea pig skin from dry-coated microprojection arrays (skin biopsy fluorometry); type: in vivo; conditions: for Amount of ovalbumin delivered: 2 cm^2 array applied 5 seconds on HGP skin, n=3, mean ± SEM; for OVA delivered into the skin: 2 cm^2 device coated with 20% OVA solution
From the text: The treatment sites (lateral area of the thorax) of anesthetized HGPs were cleaned with isopropyl alcohol wipes (70%) and allowed to dry. The skin site was lightly stretched manually when the system was applied using an impact applicator. Following application, the stretching tension was released and the system was left on the skin for the specified period of time. For devices left on skin for more than 5 seconds, the HGPs were wrapped with Vetwrap® (3M, St Paul, Minn.) and individually housed.
Each HGP received a dry-coated FITC-OVA microprojection array, which was applied as described above. Following system removal, the treated skin sites were thoroughly washed with 70% isopropyl alcohol to remove any residual OVA on the skin surface. The HGPs were euthanized and 8-mm skin biopsies were taken. Each tissue sample was placed in a scintillation vial with 0.1 mL deionized water. Hyamine hydroxide (0.9 mL, 1 M in methanol, JT Baker, Phillipsburg, N.J.) was then added, and the samples were incubated overnight at 60° C. Thereafter, the dissolved material was further diluted with 2 mL hyamine hydroxide/water (9:1), and fluorescence was quantitated by fluorometry and compared to known standards. Background control samples included untreated skin. A minimum replicate of three was used for each experimental condition.

[2] = tested on: hairless guinea pigs (HGPs); assay: Immunization of hairless guinea pigs with OVA; anti-OVA IgG titers by ELISA; type: in vivo, hairless guinea pig; conditions: for Increase in antibody titer over non-adjuvant controls: about 1 μg OVA with 15 μg GMDP, one week after booster
Description: Baseline blood samples were obtained from all animals before the day of immunization. On the day of immunization, the HGPs were anesthetized and the treatment sites were cleaned with 70% isopropyl alcohol and allowed to dry. For immunizations performed by needle injection, OVA was dissolved in sterile water. Sterile 1-mL syringes with 25-gauge needles (Becton Dickinson, Franklin Lakes, N.J.) were used. ID and SC injections were performed on the dorsal-lateral area of HGPs. The quadriceps muscle of the hind leg was used for IM injection. Microprojection arrays containing dry-coated OVA were applied as described above.
Each HGP received a primary immunization (Day 0) followed by a secondary (i.e., booster) immunization 4 weeks later with an identical article. After primary immunization, HGPs were anesthetized and blood was collected from the anterior vena cava. The serum samples were evaluated by immunoassay for the presence of anti-OVA antibodies.
Sera from nonimmunized and immunized HGPs were tested for the presence of antibodies to OVA by enzyme-linked immunosorbent assay (ELISA). Briefly, 96-well polystyrene plates (Maxisorp, NUNC, Rochester, N.Y.) were coated with 0.1 muwell of OVA (10 μg/mL in 0.2 M Na bicarbonate/carbonate buffer, pH 9.6) and incubated overnight at 4° C. The plates were washed with PBS-Tween buffer then blocked with 200 μL of PBS/casein (0.5%)/Tween-20 (0.05%) buffer for 1 hour at room temperature. Then the plates were again washed and the test sera were added (100 μL/well at 2- to 5-fold serial dilutions, three replicates, 1 hour at room temperature). After washing, 100 μL peroxidase conjugated goat anti-guinea pig IgG antibody (Jackson ImmunoResearch Laboratories, West Grove, Pa.) was added and incubated for 1 hour at room temperature. After incubation, the plates were washed, 100 μL of substrate (ABTS, Becton Dickinson, Franklin Lakes, N.J.) was added, and they were incubated for 35 minutes at room temperature. Absorbance ([…]) was measured using a SpectraMAX 250 (Molecular Devices Corporation, Sunnyvale, Calif.). The results are expressed as endpoint antibody titers relative to nonimmunized control sera samples.
Results are presented as the mean with its associated standard error of the mean. Comparison between groups was performed by analysis of variance (ANOVA).

[3] = tested on: hairless guinea pigs; assay: Example 2: immunization with tip-coated arrays; anti-ovalbumin IgG titer by ELISA; type: in vivo, hairless guinea pig; conditions: tip-coated array patch, 5 seconds wearing; two and three weeks after primary immunization; six animals
Description: Identical microprojection arrays were coated with untagged ovalbumin using a similar methodology. The amount of protein coated on the arrays was evaluated by total protein assay. The target dose of 5 μg of ovalbumin (OVA) was coated with acceptable reproducibility (4.6±0.5 μg) using a 20 wt % OVA coating solution. Immunization studies were conducted with these arrays in one group of six hairless guinea pigs. Systems and system application in animals was the same as described above except that the wearing time in all guinea pigs was 5 seconds. Three additional groups of animals received intradermal injections of 0.1, 1.0, and 10 μg ovalbumin. Blood samples were taken at various time intervals and evaluated for antibody (IgG) titer against ovalbumin by ELISA.

[4] = Example 2: ovalbumin delivery into hairless guinea pig skin from tip-coated arrays; type: in vivo; conditions: for Delivery efficiency: tip-coated arrays
From the text: Some of these microprojection arrays were applied to hairless guinea pigs (three animals per group) for evaluation of ovalbumin delivery into the skin. The skin of the animal flank was stretched manually bilaterally ( ? and ? ) at the time of application of the system. […] The system applied comprised an ovalbumin coated microprojection array, adhered to the center of a low density polyethylene film backing with an acrylate adhesive (7 cm^2 disc). Following application, the stretching tension was released and the system was removed after 5 seconds or 1 hour contact with the skin. Following removal of the system, residual drug was thoroughly washed from the skin and an 8 mm skin biopsy was taken at the location of the application. The total amount of ovalbumin delivered in the skin was determined by dissolving the skin biopsy in hyamine hydroxide (1M in methanol). Quantitation was performed by fluorimetry. […] Delivery efficiency was also found to be relatively independent of the thickness of the coating.

[5] = 1 μg OVA, 1 week after booster immunization

## CC(=O)NC1C(OC2C(CO)OC(O)C(NC(C)=O)C2OC(C)C(=O)N[C@@H](C)C(=O)N[C@H](CCC(N)=O)C(=O)O)OC(CO)C(O)C1O (stereo partly drawn) [GMDP, N-acetylglucosamine-(β1-4)-N-acetylmuramyl-L-alanyl-D-glutamine, reference compound]
[1]; OVA and GMDP dry-coated arrays, data not shown
  Effect of the adjuvant on the amount of OVA delivered: did not significantly affect the amount of OVA delivered
[2]; 1 μg OVA with about 15 μg GMDP by microprojection array
  Antibody titers with arrays delivering GMDP and OVA versus OVA alone (dose-sparing): approached the titer levels achieved with OVA doses of 20 μg or greater in the absence of GMDP
[2]; ID administration
  Increase in antibody titer over non-adjuvant controls: 250%
[2]; microprojection array administration
  Increase in antibody titer over non-adjuvant controls: 1300%

## ovalbumin [model protein antigen (Grade V, SIGMA); FITC-labeled form used for coating and delivery quantitation]
[2]; [5]
  Antibody level, microprojection array relative to IM injection: 50 fold
  Antibody level, microprojection array relative to SC injection: 10 fold
[2]; 5 μg OVA, 1 week after booster immunization
  Antibody titer, microprojection array relative to IM needle administration: 24 fold
[2]; 1 and 5 μg doses of OVA
  Antibody response, microprojection array relative to subcutaneous or intramuscular administration: up to 50 fold
  Antibody response, microprojection array versus intradermal administration: equivalent
[2]; 20 or 80 μg OVA, 1 week after booster immunization
  Antibody titers, microprojection array versus conventional ID, SC or IM injection: comparable
[3]
  Development of anti-ovalbumin IgG antibodies: all animals dosed with the microprojection array patch had developed anti-ovalbumin IgG antibodies

B1: ovalbumin (protein, UniProt P01012 2-386, looked up)
Ovalbumin: GSIGAASMEFCFDVFKELKVHHANENIFYCPIAIMSALAMVYLGAKDSTRTQINKVVRFDKLPGFGDSIEAQCGTSVNVHSSLRDILNQITKPNDVYSFSLASRLYAEERYPILPEYLQCVKELYRGGLEPINFQTAADQARELINSWVESQTNGIIRNVLQPSSVDSQTAMVLVNAIVFKGLWEKAFKDEDTQAMPFRVTEQESKPVQMMYQIGLFRVASMASEKMKILELPFASGTMSMLVLLPDEVSGLEQLESIINFEKLTEWTSSNVMEERKIKVYLPRMKMEEKYNLTSVLMAMGITDVFSSSANLSGISSAESLKISQAVHAAHAEINEAGREVVGSAEAGVDAASVSEEFRADHPFLFCIKHIATNAVLFFGRCVSP
modifications: FITC label (in one form)
notes: model protein antigen (Grade V, SIGMA); FITC-labeled form used for coating and delivery quantitation
[1]; 1% coating concentration
  Amount of ovalbumin delivered: about 1 μg/cm^2
[1]; 1% coating concentration, listed as Ovalbumin
  Amount of ovalbumin delivered: 0.9 ± 0.1 μg/cm^2
[1]; 30 minute application
  OVA delivered into the skin: 50 µg
[1]; 1 hour application
  OVA delivered into the skin: approximately 80 μg
[1]; 5% coating concentration
  Amount of ovalbumin delivered: ~6 μg/cm^2
[1]; 5% coating concentration, listed as Ovalbumin
  Amount of ovalbumin delivered: 5.8 ± 1.4 μg/cm^2
[1]; 20% coating concentration
  Amount of ovalbumin delivered: ~10 μg/cm^2
[1]; 20% coating concentration, listed as Ovalbumin
  Amount of ovalbumin delivered: 9.9 ± 0.6 μg/cm^2
[1]; Delivery condition I: 1% coating, wearing time 5 seconds, surface area 1 cm^2
  Approximate dose delivered: ~1 µg
[1]; Delivery condition II: 5% coating, wearing time 5 seconds, surface area 1 cm^2
  Approximate dose delivered: ~5 µg
[1]; Delivery condition III: 20% coating, wearing time 5 seconds, surface area 2 cm^2
  Approximate dose delivered: ~20 µg
[1]; Delivery condition IV: 20% coating, wearing time 3600 seconds, surface area 2 cm^2
  Approximate dose delivered: ~80 µg
[1]; array coated from OVA (1%) and GMDP (10%)
  OVA delivered from arrays dry-coated with OVA and GMDP: approximately 1 μg
[2]; 20 or 80 μg OVA by microprojection array, 2 weeks after primary immunization
  Seroconversion after primary immunization: seroconverted by 2 weeks after the primary immunization
[2]; OVA by microprojection array, all doses tested (1, 5, 20, 80 μg)
  Seroconversion after booster immunization: All animals had seroconverted
[4]; tip-coated 2 cm^2 arrays, 5 second or 1 hour wearing
  OVA delivered into hairless guinea pig skin: up to 4.5 μg
[4]; 5 second wearing time
  Delivery efficiency: higher than 55%
[4]; 1 hour wearing time
  Delivery efficiency: > 85%
